The source of these data is publication PMC4201290.

Test in all cases: fluorescence polarization
(In general: Fluorescence polarisation rises when a labelled molecule tumbles more slowly, as on binding a larger partner.)

Data set [1] addresses Egr1/Zif268 ZnF1-3 (Homo sapiens) (UniProt P18146). The conditions noted are these: FP: 5 nM FAM-dsDNA, 300 mM NaCl (200 mM in Fig 4E), 20 mM Tris-HCl pH 7.5, 5% glycerol, 0.5 mM TCEP, 25 C, 10 min.
Data set [2] relates to WT1 ZnF2-4 (-KTS) (Homo sapiens), P19544-4. The conditions noted are these: FP: 5 nM FAM-dsDNA, 300 mM NaCl (200 mM in Fig 4E), 20 mM Tris-HCl pH 7.5, 5% glycerol, 0.5 mM TCEP, 25 C, 10 min; for Kd: 300 mM NaCl.
In data set [3] the target is WT1 ZnF2-4 +KTS isoform (Homo sapiens) (UniProt P19544). Conditions: FP: 5 nM FAM-dsDNA, 300 mM NaCl (200 mM in Fig 4E), 20 mM Tris-HCl pH 7.5, 5% glycerol, 0.5 mM TCEP, 25 C, 10 min.
Where [4] appears, read: 5fC at C9 of strand 1, 5mC at C3 of strand 1 and C3, C9 of strand 2.
Where [5] appears, read: 5hmC at C9 of strand 1, 5mC at C3 of strand 1 and C3, C9 of strand 2.
The mark [6] stands for this setting: 5hmC at C3 and C9 of strand 1, 5mC at C3 and C9 of strand 2.
Where [7] appears, read: 5mC at C3 and C9 of strand 2 only.
Where [8] appears, read: 5mC at C3 and C9 of both strands.

WT1 ZnF2-4 +KTS isoform (Homo sapiens), sequence (P19544 350-440): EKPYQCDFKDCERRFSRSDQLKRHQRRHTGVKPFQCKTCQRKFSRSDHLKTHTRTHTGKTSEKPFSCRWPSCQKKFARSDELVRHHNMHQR
WT1 ZnF2-4 (-KTS) (Homo sapiens), P19544-4, sequence (P19544 other isoform, or with tags, fused parts or gaps): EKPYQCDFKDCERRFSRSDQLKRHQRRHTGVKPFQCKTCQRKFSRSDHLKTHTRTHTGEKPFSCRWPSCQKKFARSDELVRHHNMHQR

AGCGTGGGCGT / TACGCCCACGC [5caCx1]: the Kd – broadly, the constant that tells how readily two partners part at equilibrium – in data set [1] (5caC at C9 of strand 1, 5mC at C3 of strand 1 and C3, C9 of strand 2) is above 12000 nM; in data set [2] (2-fold stronger than 5mC, 5caC at C9 of strand 1, 5mC at C3 of strand 1 and C3, C9 of strand 2) it was 50 nM.

With AGCGTGGGCGT / TACGCCCACGC [5caCx2], the Kd in data set [2] (~25-fold weaker than M/M, also printed as KD > 2.3 uM, 5caC at C3 and C9 of strand 1, 5mC at C3 and C9 of strand 2) turned out to be 2300 nM.

Consider AGCGTGGGCGT / TACGCCCACGC [5fCx1], for which the binding signal (fold weaker than 5mC (M/M)) in data set [1] (setting [4]) amounted to 15; in data set [2] (setting [4]), 14.

AGCGTGGGCGT / TACGCCCACGC [5fCx2] had a binding signal (fold weaker than M/M) in data set [2] (5fC at C3 and C9 of strand 1, 5mC at C3 and C9 of strand 2) of 75.

As to AGCGTGGGCGT / TACGCCCACGC [5hmCx1], the results for the binding signal (fold weaker than 5mC (M/M)) in data set [1] (setting [5]) and in data set [2] (setting [5]) were 3.6 and 4.5, respectively.

In the case of AGCGTGGGCGT / TACGCCCACGC [5hmCx2], the binding signal (fold weaker than M/M) in data set [1] (setting [6]) was 24; in data set [2] (setting [6]), 75.

Regarding AGCGTGGGCGT / TACGCCCACGC [C/C], the binding signal (fold weaker than M/M) in data set [1] (none) worked out at 2.8; in data set [2] (none) it was 1.8. This sequence showed a binding signal (fold weaker than -KTS isoform) in data set [3] (none) of 24.

Turning to AGCGTGGGCGT / TACGCCCACGC [C/M], the binding signal (fold weaker than M/M) was 2 in data set [1] (setting [7]) and 1.2 in data set [2] (setting [7]). Also, the binding signal (fold weaker than -KTS isoform) in data set [3] (setting [7]) is 24.

AGCGTGGGCGT / TACGCCCACGC [M/M]: the binding signal (fold stronger than C/C) in data set [1] (setting [8]) turned out to be 2.8; in data set [2] (setting [8]) it was 1.8. Also, the binding signal (fold weaker than -KTS isoform) in data set [3] (300 mM NaCl, 25-fold also printed (Fig 4C), 5mC at C3 and C9 of both strands) stood at 24.
